Columns and labels:
Assay in all cases: other fluorescence titration; Ca2+ titration at saturating CaM: 0.5 µM FRET biosensor, 2 µM X-Rhod5F, 0.1 mg/mL BSA, 0.25 mM Br2BAPTA (3 mM BAPTA and 700 µM CaM for the SMD1 biosensors), 25 mM Tris, 100 mM KCl, pH 7.5, 22°C; start nominally Ca2+-free; free Ca2+ from X-Rhod5F; EC50(Ca2+) from Hill fits
BSGPER_(150–175) (human) = BSGPER_(150–175) (human) (UniProt Q99527)
BSGPER_(330–351) (human) = BSGPER_(330–351) (human) (UniProt Q99527)
BSGPER_(83–93) (human) = BSGPER_(83–93) (human) (UniProt Q99527)
BSGPER_(242–259) (human) = BSGPER_(242–259) (human) (UniProt Q99527)

Calmodulin (CaM), recombinant, from the rat CaMI gene (from UniProt P0DP29 1-149) (natural protein)
EC50(Ca2+) of complex formation (BSGPER_(150–175) (human)): 2380 nM | EC50(Ca2+) of complex formation (BSGPER_(330–351) (human)): 750 nM | EC50(Ca2+) of complex formation, species 1 (BSGPER_(83–93) (human)): 130 nM | EC50(Ca2+) of complex formation, species 2 (BSGPER_(83–93) (human)): 3710 nM | EC50(Ca2+) of complex formation (BSGPER_(242–259) (human)): 5150 nM

— PMC3931812
